The record followed here is US20100323904, “Transcription chip” (published 2010).

Data set [1] deals with T1, NF-kB p50 (UniProt P19838 P19838:1-433). The experiment in a line: ELISA; on-chip ELISA; detected down to 1.0 ng/mL (DLC) and 0.33 ng/mL (GeneDia); 1% BSA, 10 mM HEPES pH 7.5, salmon sperm DNA, 2 mM DTT, room temperature; also fluorescence immunoassay on array. The settings on record: tags: Promega; chain copies: 2. How it is done: (§1) The plate was washed twice with the washing buffer, NFκB at various concentrations diluted with the binding buffer was added, and the plate was shaken at room temperature for one hour. The plate was washed three times with the washing buffer, anti-NFκB antibody diluted 2000 times with antibody diluting buffer was added, and the plate was shaken at room temperature for one hour. The plate was washed three times with the washing buffer, POD-labeled anti-rabbit IgG secondary antibody diluted 2000 times with the antibody diluting buffer was added, and the plate was shaken at room temperature for one hour. The plate was washed five times with the washing buffer, and subsequently absorbance at a wavelength of 450 nm based on the absorbance of TMBZ which was a color development substrate of POD was measured by a microplate reader.
(§2) In order to investigate an ELISA condition for NFκB, the double-stranded DNA comprising the element DNA sequence different in length and copy number were synthesized by the PCR method or a synthetic method, and analyzed. When PRD II-1 comprising one copy of the PRD II sequence was compared with PRD II-2, the immobilized PRD II-2 was more excellent in efficiency of trapping NFκB (FIG. 5). […]

Data set [2] concerns the target T1, NF-kB p50. The experiment in a line: array fluorescence immunoassay, 100 ng/mL; in ELISA about 30-50% background color before blocking optimisation. The settings on record: tags: Promega; chain copies: 2. The method, then:
(§3) After washing twice with the washing buffer, NFκB diluted at 100 ng/mL with the binding buffer was added, and shaken at room temperature for one hour. After washing three times with the washing buffer, anti-NFκB antibody (RCK) diluted 100 times with antibody diluting buffer was added, and shaken at room temperature for one hour. After washing twice with the washing buffer, FITC-labeled anti-rabbit IgG antibody diluted 50 times with the antibody diluting buffer was added, and shaken at room temperature for one hour. After washing twice with the washing buffer, at a fluorescence wavelength of 535 nm based on Fluorescence of FITC excited with laser at a wavelength of 473 nm, fluorescent intensity was detected by CRBIO II microarray scanner.
The oligonucleotides comprising 9 element sequences, PRD II, AP1, p53, VDRE, RARE, CRE, TRE, GRE and ERE which were not labeled with FITC were similarly immobilized on the DLC chip. NFκB (100 ng/mL) was added to the DLC chip on which these 9 transcription factors had been arrayed, and detected by fluorescence immunoassay. As a result, the fluorescence was detected only from the oligonucleotide comprising PRD II which was the NFκB recognition sequence. […]

The target of data set [3] is T1, NF-kB p50. The experiment in a line: array fluorescence immunoassay, 100 ng/mL. The settings on record: tags: Promega; chain copies: 2. The method, then: as §3
The oligonucleotides comprising 9 element sequences, PRD II, AP1, p53, VDRE, RARE, CRE, TRE, GRE and ERE which were not labeled with FITC were similarly immobilized on the DLC chip. NFκB (100 ng/mL) was added to the DLC chip on which these 9 transcription factors had been arrayed, and detected by fluorescence immunoassay. As a result, the fluorescence was detected only from the oligonucleotide comprising PRD II which was the NFκB recognition sequence. […] Therefore, it is possible to construct the system in which multiple transcription factors are simultaneously detected in a sample in a small amount by combining antibodies which specifically recognize the transcription factors which is bound to the other element sequences.

A further data set concerns the target T2, Vitamin D receptor (VDR) (UniProt P11473 P11473:1-427).
T2 sequence: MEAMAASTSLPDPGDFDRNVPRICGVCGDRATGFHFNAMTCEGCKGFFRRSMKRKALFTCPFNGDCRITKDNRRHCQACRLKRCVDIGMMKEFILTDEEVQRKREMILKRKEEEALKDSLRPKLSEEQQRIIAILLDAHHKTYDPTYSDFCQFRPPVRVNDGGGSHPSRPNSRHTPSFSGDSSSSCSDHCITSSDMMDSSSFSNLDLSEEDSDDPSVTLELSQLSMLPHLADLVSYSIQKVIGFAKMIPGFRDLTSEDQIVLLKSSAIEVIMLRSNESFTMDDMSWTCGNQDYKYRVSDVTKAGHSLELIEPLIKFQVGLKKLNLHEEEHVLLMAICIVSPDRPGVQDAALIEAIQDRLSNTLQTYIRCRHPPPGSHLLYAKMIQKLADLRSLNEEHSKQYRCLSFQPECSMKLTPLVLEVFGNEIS
Put plainly: 500 fmol/chip; captured VDR detected by on-chip trypsin digestion and MALDI-TOF MS. The method, then:
Next, the on-chip digestion of 500 fmol/chip of vitamin D receptor was performed using trypsin (1 μg/mL) on the chip on which the element sequence VDRE which was the recognition sequence of the vitamin D receptor had been immobilized. Subsequently, the sample was added to the MALDI plate, and consequently, the same peptide map as that obtained by trypsin digestion of the sample in the solution was obtained as is the case with NFκB (FIGS. 16 and 17).

Data set [4] has as its target T1, NF-kB p50. Put plainly: ELISA; trapping equivalent to or more than PRD II-2. The settings on record: tags: Promega; chain copies: 2; label: 5'-FITC on bottom strand. The method, then: as §1, §2

T1 sequence (P19838 1-433, one chain of several): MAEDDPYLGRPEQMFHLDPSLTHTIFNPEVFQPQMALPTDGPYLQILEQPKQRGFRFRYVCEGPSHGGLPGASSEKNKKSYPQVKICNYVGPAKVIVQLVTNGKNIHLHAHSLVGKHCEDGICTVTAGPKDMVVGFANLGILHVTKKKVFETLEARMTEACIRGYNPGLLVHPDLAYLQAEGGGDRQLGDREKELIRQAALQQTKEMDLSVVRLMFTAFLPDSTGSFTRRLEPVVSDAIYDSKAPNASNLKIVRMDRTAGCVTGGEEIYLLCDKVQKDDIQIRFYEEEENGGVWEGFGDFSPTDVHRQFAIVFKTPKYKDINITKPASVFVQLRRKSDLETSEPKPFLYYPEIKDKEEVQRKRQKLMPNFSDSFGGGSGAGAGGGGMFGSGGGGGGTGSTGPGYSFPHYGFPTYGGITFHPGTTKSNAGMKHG

B1: PRD II (two copies) (dsDNA)
DNA 1: GGGAGCTGAGTAGGGAAATTCCATGCATGCGGGAAATTCCCATG
DNA 2: CATGGGAATTTCCCGCATGCATGGAATTTCCCTACTCAGCTCCC
modifications: 5'-NH2(CH2)12 on top strand, immobilized on chip
Take B1: in the data set with NF-kB p50 [1], the binding result is on record as “binds”.

B2: AP1 (dsDNA)
DNA 1: GGGAGCTGAGTATGACTCATATGCATGCTGACTCATCATG
DNA 2: CATGATGAGTCAGCATGCATATGAGTCATACTCAGCTCCC
modifications: 5'-NH2(CH2)12 on top strand, immobilized on chip
Take B2: the binding result with NF-kB p50 [2] is on record as “no binding”.

B3: VDRE (dsDNA)
DNA 1: GGGAGCTGAGTAAGGTCAAGGAGGTCAATGCATGCAGGTCAAGGAGGTCACATG
DNA 2: CATGTGACCTCCTTGACCTGCATGCATTGACCTCCTTGACCTTACTCAGCTCCC
modifications: 5'-NH2(CH2)12 on top strand, immobilized on chip
In the case of B3, the figures for the binding result in the data set with NF-kB p50 [3] and with Vitamin D receptor (VDR) were “no binding” and “binds”, respectively.

B4: IgkB (two copies) (dsDNA)
DNA 1: GGGAGCTGAGTAGGGGATCCCATGCATGCGGGGATCCCCATG
DNA 2: CATGGGGATCCCCGCATGCATGGGATCCCCTACTCAGCTCCC
modifications: 5'-NH2(CH2)12 on top strand, immobilized on chip
B4: in the data set with NF-kB p50 [4], the binding result is “binds”.

B5: TRE (dsDNA)
DNA 1: GGGAGCTGAGTAAGGTCATGACCTATGCATGCAGGTCATGACCTCATG
DNA 2: CATGAGGTCATGACCTGCATGCATAGGTCATGACCTTACTCAGCTCCC
modifications: 5'-NH2(CH2)12 on top strand, immobilized on chip
For the molecule B5, in the data set with NF-kB p50 [3], the binding result was “no binding”.

B6: CRE (dsDNA)
DNA 1: GGGAGCTGAGTATGACGTCAATGCATGCTGACGTCACATG
DNA 2: CATGTGACGTCAGCATGCATTGACGTCATACTCAGCTCCC
modifications: 5'-NH2(CH2)12 on top strand, immobilized on chip
With B6, the binding result with NF-kB p50 [3] is “no binding”.

B7: RARE (dsDNA)
DNA 1: GGGAGCTGAGTAAGGTCACCAGGAGGTCAATGCATGCAGGTCACCAGGAGGTCACATG
DNA 2: CATGTGACCTCCTGGTGACCTGCATGCATTGACCTCCTGGTGACCTTACTCAGCTCCC
modifications: 5'-NH2(CH2)12 on top strand, immobilized on chip
Consider B7, for which, in the data set with NF-kB p50 [3], the binding result is given as “no binding”.
